In experiment [1] the target is T1, HLA-A*23:01 on FlowPRA Single Antigen beads (human, UniProt P13749 25-305 (Pan troglodytes entry), limits assumed).
T1 construct: Bought HLA class I antigen on One Lambda beads. b2m and peptide are not described
T1 MHC heavy: not shown
The experiment is described as follows: single antigen FlowPRA bead assay, flow cytometry. Background: Flow cytometry measures light scatter and fluorescence of single cells or particles in a stream.

The target of experiment [2] is T2, HLA-A*24:02 on FlowPRA Single Antigen beads (human, UniProt P04439-2 25-302 at identity 0.92)).
T2 construct: Bought HLA class I antigen on One Lambda beads. b2m and peptide are not described
T2 MHC heavy: not shown
The experiment is described as follows: single antigen FlowPRA bead assay, flow cytometry.

The source of these data is patent US20200283529A1 (UNIVERSITY OF BRITISH COLUMBIA, published 2020).

B1: BB7.2 antibody (antibody, IgG2b, V domains shown)
VH: QVQLQQSGPELVKPGASVKMSCKASGYTFTSYHIQWVKQRPGQGLEWIGWIYPGDGSTQYNEKFKGKTTLTADKSSSTAYMLLSSLTSEDSAIYFCAREGTYYAMDYWGQGTSVTVSS
VL: DVLMTQTPLSLPVSLGDQVSISCRSSQSIVHSNGNTYLEWYLQKPGQSPKLLIYKVSNRFSGVPDRFSGSGSGTDFTLKISRVEAEDLGVYYCFQGSHVPRTFGGGTKLEIK
notes: also called mouse monoclonal antibody (BB7.2)
Regarding B1, the binding result in experiment [1] and in experiment [2] was “no binding” in each case.
